Molecular target: T1, mouse 4-1BB–Fc protein (mouse, UniProt P20334 24-187)
T1 chain: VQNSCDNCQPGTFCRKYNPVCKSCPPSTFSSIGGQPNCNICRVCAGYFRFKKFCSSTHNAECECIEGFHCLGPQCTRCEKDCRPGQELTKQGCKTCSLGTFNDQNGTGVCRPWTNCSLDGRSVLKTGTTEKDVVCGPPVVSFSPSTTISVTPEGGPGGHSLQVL
Test: SPR

B1: mouse siglec-4–HIS protein (domain or fragment)
chain: GHWGAWMPSTISAFEGTCVSIPCRFDFPDELRPAVVHGVWYFNSPYPKNYPPVVFKSRTQVVHESFQGRSRLLGDLGLRNCTLLLSTLSPELGGKYYFRGDLGGYNQYTFSEHSVLDIVNTPNIVVPPEVVAGTEVEVSCMVPDNCPELRPELSWLGHEGLGEPTVLGRLREDEGTWVQVSLLHFVPTREANGHRLGCQAAFPNTTLQFEGYASLDVKYPPVIVEMNSSVEAIEGSHVSLLCGADSNPPPLLTWMRDGMVLREAVAKSLYLDLEEVTPGEDGVYACLAENAYGQDNRTVELSVMYAPWKPTVNGTVVAVEGETVSILCSTQSNPDPILTIFKEKQILATVIYESQLQLELPAVTPEDDGEYWCVAENQYGQRATAFNLSVEFAPIILLESHCAAARDTVQCLCVVKSNPEPSVAFELPSRNVTVNETEREFVYSERSGLLLTSILTIRGQAQAPPRVICTSRNLYGTQSLELPFQGAHRLMWAKIGP
  koff: 0.011 s⁻¹
